Measured values: the supplement of paper PMC9732359
± gives the uncertainty stated by the source.

Test: protein stability index of a GFP-peptide fusion (yeast GPS) (PSI 1-4); higher = more stable; sorted into four equal gates, so the index is relative within each strain
Conditions: pdr5∆
Summary of the method: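 For each peptide, the protein stability index sums the read frequency in every gate after multiplying it by the gate number. Read frequencies came from plasmids that were PCR-amplified from each gate and Illumina-sequenced, with reads assigned to strains by barcodes. The gates were four equal bins of GFP/Cherry fluorescence ratio applied to mid-log yeast in leucine-free medium carrying a pooled library of tiled 17-residue yeast protein peptides fused downstream of GFP on a Cherry-expressing plasmid.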

INMADRSLGLQQVVCIF [POP6] and INPESREIVMPAHTKYM [ITC1] are within error of each other in protein stability index: 1.3 ± 0.11 for the first, 1.5 ± 0.2 for the second.

Same assay, conditions: san1∆

Going from HKSPNLSLMLESPNYCN [SRB4] to HLGERAASVIGMLVALG [RPC82], the protein stability index falls from 2.64 ± 0.095 to 1.75 ± 0.21.

Compared with HLLVQLQKNDVYAFKAK [REC8], HLMSWSKTGIIAYSDSQ [SIN4] is lower in protein stability index: 2.73 ± 0.059 for the first, 1.32 ± 0.12 for the second.

Going from HLRSNILKDLIYRGVLN [SMC1] to HNKLNITSDALEGITTT [SMC3], the protein stability index rises from 1.8 ± 0.14 to 3.03 ± 0.092.

Going from HNLHPQIGQVPLAPAPI [SNF5] to HPQDFGNPGRIRVLFKE [SEC65], the protein stability index rises from 2.56 ± 0.059 to 3.13 ± 0.065.

Going from HQFHDILEEKTDLHLPK [NSL1] to HRLLQRALFRQLKRWYW [RMP1], the protein stability index falls from 2.27 ± 0.076 to 1.22 ± 0.17.

HRSKKDQDQYLEIAKDF [IRR1] and HSGELMRQQSKELQQLQ [SMC1] are within error of each other in protein stability index: 3.04 ± 0.13 for the first, 2.9 ± 0.11 for the second.

Compared with HSISEAENMLEELRGQQ [SMC4], HSNLEKISNSKLLSLLR [SIR4] is lower in protein stability index: 3.35 ± 0.068 for the first, 2.5 ± 0.051 for the second.

Going from HTPMVNFESISARSSVH [SRB8] to HTQDIIGGMRVDENGDP [RET1], the protein stability index rises from 1.79 ± 0.051 to 3.17 ± 0.055.

First: HTSSNSREIAQPSSSRY [SMB1]
Second: HVKVNDKKEMTIYNNIR [SIR3]
The protein stability index of the first is higher: 3.02 ± 0.054 for the first, 2.87 ± 0.04 for the second.

Compared with HVPEKKSTDLTPKGNES [MTR3], HWNLPGERIFNKIRNLE [SIR2] is higher in protein stability index: 2.66 ± 0.084 for the first, 3.2 ± 0.056 for the second.

Going from IAAGTYGKVYKAKRQIN [SSN3] to IAFDDLIENKIQNKKIQ [RPN8], the protein stability index rises from 2.24 ± 0.068 to 2.57 ± 0.066.

Compared with IAIAGTGQIEGLLDYMR [COR1], IAKLSVIPIRRGYWGTN [RPS2] is lower in protein stability index: 3.17 ± 0.061 for the first, 1.93 ± 0.19 for the second.

IALGEDIGKEMSLRHFG [RPN1] and IALNLDTTVNDCLDKLL [SNF2] are within error of each other in protein stability index: 2.55 ± 0.2 for the first, 2.65 ± 0.1 for the second.

Going from IAMPKRRMAFKPFGSAK [YLR335W/NUP2] to IANMVLPPEKIYSPLHS [SIR2], the protein stability index falls from 3.11 ± 0.043 to 1.73 ± 0.05.

Going from IASTLGPSAMRLSRCIR [RPC82] to IAYSDSQSSNANICLTF [SIN4], the protein stability index rises from 1.81 ± 0.083 to 2.38 ± 0.081.

Compared with IDEIAYLFHNDRIIHTW [ECM29], IDEKSQFVETIVSKSIE [RPN2] is higher in protein stability index: 1.3 ± 0.081 for the first, 1.64 ± 0.096 for the second.

First: IDETMMDKPLNFRILKS [SRB5]
Second: IDLEAPVQIVKRITQIT [RPS20]
The protein stability index of the first is higher: 2.76 ± 0.087 for the first, 1.78 ± 0.14 for the second.

Going from IDNYITNSVRLFEVNPS [SRP21] to IDQAHVSEITKLKFFPS [RPN14], the protein stability index rises from 2.54 ± 0.091 to 3.12 ± 0.054.

Going from IDRGLFRSLFFRSYMDQ [RPB2] to IDSINGPDTKGQLEDFD [SMC3], the protein stability index rises from 1.86 ± 0.25 to 3.18 ± 0.24.

Going from IDSSNLPLQAQQQLYGG [SWI1] to IDYSNSQIRLYAKFKRN [RGR1], the protein stability index falls from 2.75 ± 0.077 to 2.45 ± 0.091.

Compared with IEAASTTQDQCKLTLDI [RPB8], IEAGRAALYKEVYNVIA [RPO21] is lower in protein stability index: 2.81 ± 0.042 for the first, 2.41 ± 0.13 for the second.

IEAIDEYNKPNSEKFVF [ISW2] and IEGMEQRIIKELSIRFP [ARP7] are within error of each other in protein stability index: 3.01 ± 0.092 for the first, 2.84 ± 0.086 for the second.

First: IEKTESVDKKVDSGEER [SWI3]
Second: IELIDYDKLPAGQNATV [RET1]
The protein stability index of the first is higher: 3.36 ± 0.055 for the first, 1.67 ± 0.2 for the second.

First: IEPLEINIQSFKDVEHI [BRR2]
Second: IEQLFPVRPVRVRHEDV [RPC53]
The protein stability index of the first is lower: 2.12 ± 0.074 for the first, 2.89 ± 0.055 for the second.

Going from IERLTKRQFNNSYWLII [ITC1] to IESFVELGVSIYDFPGT [NUT2], the protein stability index rises from 2.16 ± 0.097 to 2.53 ± 0.09.

Compared with IFCVGSGQTFAYGVLDS [PRE2], IFGSGFGSADDTYPYLT [FAS1] is lower in protein stability index: 2.249 ± 0.019 for the first, 1.73 ± 0.09 for the second.

IFHPMIHYSWSFILYYR [YML103C/NUP188] and IFNSNKAKIIPGNGKHA [SIR4] are within error of each other in protein stability index: 1.69 ± 0.063 for the first, 1.9 ± 0.17 for the second.

Going from IFSYGPHIQKMLSILEI [POP6] to IFSYLQFTSSLFKALKV [RGR1], the protein stability index falls from 2.56 ± 0.15 to 1.12 ± 0.11.

Going from IFTDFLPSSNGSSRIIA [RRP42] to IGFTIKEYENHSGELMR [SMC1], the protein stability index falls from 3.07 ± 0.073 to 2.06 ± 0.12.

First: IGGMRVDENGDPIWQHQ [RET1]
Second: IGHLIKTRFKGSQFIVV [SMC2]
The protein stability index of the first is lower: 2.88 ± 0.26 for the first, 3.38 ± 0.087 for the second.

Compared with IGQIIFSVRTKDSNKDV [RPL10], IHEIRLNTLNNVVEIWV [SIR3] is lower in protein stability index: 2.21 ± 0.065 for the first, 1.46 ± 0.086 for the second.

First: IHIQETQEFSKNYTTET [SIR3]
Second: IHLNELLTNDESAFENL [SNF12]
The protein stability index of the first is higher: 3.4 ± 0.16 for the first, 2.88 ± 0.067 for the second.

Going from IHSGVLSSIESDLKKRE [YMR153W/NUP53] to IIAVKGSGSRLNRLPAA [RPL23A], the protein stability index falls from 3.1 ± 0.066 to 1.23 ± 0.099.

First: IIDHIPGHSLLLSIKLP [SNF5]
Second: IIEQLSIAAERYDYSDE [YCG1]
The protein stability index of the first is lower: 1.53 ± 0.11 for the first, 2.22 ± 0.06 for the second.

First: IIGTFSDSYKVSLQNFS [RRP40]
Second: IIKGTDVYSPEKGSWEQ [BRR2]
The protein stability index of the first is lower: 2.24 ± 0.11 for the first, 3.24 ± 0.11 for the second.

IIKMTIPYAAKLLFQEL [RET1] and IIKYPVAFDNINTHIET [SNF2] are within error of each other in protein stability index: 1.75 ± 0.22 for the first, 2 ± 0.16 for the second.

IILKTRQINKLIDSLPG [SRB7] and IIPTTLEEQQQLEDESS [YML103C/NUP188] are within error of each other in protein stability index: 2.62 ± 0.067 for the first, 2.67 ± 0.081 for the second.

First: IISSNENALIELKNELA [YIL149C/MLP2]
Second: IKDEIDDPFTKINTRGA [SWI1]
The protein stability index of the first is higher: 2.71 ± 0.14 for the first, 1.53 ± 0.13 for the second.

IKKKKKKSKNGTISKTG [SRP14] and IKLDRWLMEGSYQKAWD [RPN12] are within error of each other in protein stability index: 3.11 ± 0.1 for the first, 2.9 ± 0.11 for the second.

Going from IKNLTVQLSPSNPQHII [RGR1] to IKSKADAWVSAAHYNRE [PRP8], the protein stability index rises from 2.42 ± 0.062 to 2.6 ± 0.06.

Compared with IKSQYYSRISKLKQLLD [YIL149C/MLP2], IKTFLVDLTSSNFADSA [YDL116W/NUP84] is higher in protein stability index: 1.64 ± 0.12 for the first, 2.78 ± 0.1 for the second.

Compared with IKTQQHILPEVPPVENF [TAF14], ILGMLSLADNEIALKGL [YCS4] is lower in protein stability index: 2.89 ± 0.086 for the first, 2.11 ± 0.089 for the second.

ILHVRAQYCYKNGLYQE [SRP72] and ILKEEFPKIDSLAQNDC [RPN5] are within error of each other in protein stability index: 3.1 ± 0.068 for the first, 3.22 ± 0.056 for the second.

Compared with ILMQQQMMARMAQTATQ [SRP54], ILQILNLMILNTKVPVD [YML103C/NUP188] is lower in protein stability index: 2.08 ± 0.12 for the first, 1.12 ± 0.29 for the second.

Compared with ILSVKLAELINMTTIAD [SRB6], ILTPESQLKKSKAQQKT [RPL7A] is higher in protein stability index: 2.75 ± 0.069 for the first, 2.98 ± 0.12 for the second.

First: ILYGLVDKGAIMKNKDF [YJL039C/NUP192]
Second: IMRILKSNGLAPEIPED [RPS13]
The protein stability index of the first is higher: 3.06 ± 0.21 for the first, 1.9 ± 0.22 for the second.

Going from INAEEIVDFTLPPPPPP [PRP8] to INGWELTKAQKYLEQVL [RPL17A], the protein stability index rises from 3.01 ± 0.047 to 3.4 ± 0.036.

Compared with INHTILGKLQDVFNLLP [RPN8], INKQRVPLSDNAIIEAN [RPL7A] is lower in protein stability index: 2.84 ± 0.048 for the first, 2.51 ± 0.066 for the second.

Going from INLRKVAEKMNGCSGAD [RPT6] to INMADRSLGLQQVVCIF [POP6], the protein stability index falls from 2.38 ± 0.13 to 1.4 ± 0.15.

Sequence INPESREIVMPAHTKYM [ITC1] has a protein stability index of 1.69 ± 0.14.

Same assay, conditions: ubr1∆

First: HKSPNLSLMLESPNYCN [SRB4]
Second: HLGERAASVIGMLVALG [RPC82]
The protein stability index of the first is higher: 2.71 ± 0.06 for the first, 2.04 ± 0.067 for the second.
